Results taken from US7674604.

Columns and labels:
[1] = target: LFA-1 mutant K287C/K294C (αL K287C/K294C with β2) on 293T or K562 transfectants (human) (UniProt P05107); experiment: flow cytometry, 293T, normalized to TS2/4
[2] = target: LFA-1 mutant L289C/K294C (αL L289C/K294C with β2) on 293T or K562 transfectants (human) (UniProt P05107); experiment: flow cytometry, 293T, normalized to TS2/4
[3] = target: LFA-1 mutant K287C/K294C (αL K287C/K294C with β2) on 293T or K562 transfectants (human) (UniProt P05107); experiment: flow cytometry, K562, normalized to TS2/4
[4] = target: LFA-1 mutant L289C/K294C (αL L289C/K294C with β2) on 293T or K562 transfectants (human) (UniProt P05107); experiment: flow cytometry, K562, normalized to TS2/4
[5] = target: LFA-1 single cysteine substitution mutant K287C on 293T transfectants (human) (UniProt P05107); experiment: flow cytometry, 293T, normalized to TS2/4
[6] = target: LFA-1 single cysteine substitution mutant K294C on 293T transfectants (human) (UniProt P05107); experiment: flow cytometry, 293T, normalized to TS2/4
[7] = target: LFA-1 single cysteine substitution mutant L289C on 293T transfectants (human) (UniProt P05107); experiment: flow cytometry, 293T, normalized to TS2/4
[8] = target: LFA-1 mutant K287C/K294C (αL K287C/K294C with β2) on 293T or K562 transfectants (human) (UniProt P05107); experiment: flow cytometry, K562, normalized to TS1/22
[9] = target: wild-type Mac-1 (αMβ2) on 293T or K562 transfectants (human) (UniProt P05107); experiment: flow cytometry on K562 stable transfectants with intact Mac-1, row 'Wild-type'
[10] = target: Mac-1 mutant D294C/Q311C (with β2) on K562 transfectants (human) (UniProt P05107); experiment: flow cytometry on K562 stable transfectants with intact Mac-1, row 'D294C/Q311C'
[11] = target: Mac-1 mutant Q163C/Q309C (αM Q163C/Q309C with β2) on 293T or K562 transfectants (human) (UniProt P05107); experiment: flow cytometry on K562 stable transfectants with intact Mac-1, row printed 'Q163/Q309C'
[12] = target: wild-type LFA-1 (αL/β2 complex) expressed on 293T or K562 transfectants (human) (UniProt P05107); experiment: flow cytometry on K562 transfectants, panel 'intact LFA-1'
[13] = target: isolated wild-type αL I-domain (V130-A338) expressed on K562 cells by the PDGF receptor transmembrane domain (human); experiment: flow cytometry on K562 transfectants, panel 'WT I-domain (#1)'
Chain of isolated wild-type αL I-domain (V130-A338) expressed on K562 cells by the PDGF receptor transmembrane domain (human) (P09619 other isoform, or with tags, fused parts or gaps): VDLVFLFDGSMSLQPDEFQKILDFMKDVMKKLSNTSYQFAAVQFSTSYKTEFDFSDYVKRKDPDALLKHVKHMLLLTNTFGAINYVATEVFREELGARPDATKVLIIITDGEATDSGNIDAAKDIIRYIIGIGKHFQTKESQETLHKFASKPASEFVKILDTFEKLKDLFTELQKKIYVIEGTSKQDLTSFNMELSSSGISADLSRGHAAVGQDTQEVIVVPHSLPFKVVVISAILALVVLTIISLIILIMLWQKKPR

[14] = target: isolated K287C/K294C αL I-domain (V130-A338) expressed on K562 cells by the PDGF receptor transmembrane domain (human) (UniProt P20701); experiment: flow cytometry on K562 transfectants, panel 'K287C/K294C I-domain (#1)'
Chain of isolated K287C/K294C αL I-domain (V130-A338) expressed on K562 cells by the PDGF receptor transmembrane domain (human) (P20701 155-363 K312C/K319C limits assumed): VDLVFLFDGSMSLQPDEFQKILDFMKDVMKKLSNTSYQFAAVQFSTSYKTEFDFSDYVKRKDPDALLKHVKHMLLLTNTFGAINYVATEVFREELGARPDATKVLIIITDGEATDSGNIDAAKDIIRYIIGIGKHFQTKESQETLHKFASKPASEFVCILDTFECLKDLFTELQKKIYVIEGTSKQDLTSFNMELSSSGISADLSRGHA

[15] = target: isolated K287C/K294C αL I-domain (V130-A338) expressed on K562 cells by the PDGF receptor transmembrane domain (human) (UniProt P20701); experiment: flow cytometry on K562 transfectants, panel 'K287C/K294C I-domain (#2)'
[16] = target: isolated L289C/K294C αL I-domain (V130-A338) expressed on K562 cells by the PDGF receptor transmembrane domain (human) (UniProt P20701); experiment: flow cytometry on K562 transfectants, panel 'L289C/K294C I-domain (#1)'
Chain of isolated L289C/K294C αL I-domain (V130-A338) expressed on K562 cells by the PDGF receptor transmembrane domain (human) (P20701 155-363 L314C/K319C limits assumed): as the sequence (P20701 155-363 K312C/K319C limits assumed) above, with C158K, L160C counted along it

[17] = target: isolated L289C/K294C αL I-domain (V130-A338) expressed on K562 cells by the PDGF receptor transmembrane domain (human) (UniProt P20701); experiment: flow cytometry on K562 transfectants, panel 'L289C/K294C I-domain (#2)'
[18] = target: isolated wild-type αL I-domain (V130-A338) expressed on K562 cells by the PDGF receptor transmembrane domain (human); experiment: flow cytometry on K562 transfectants, panel 'WT I-domain (#2)'; nothing is printed after the point
[19] = target: wild-type LFA-1 (αL/β2 complex) expressed on 293T or K562 transfectants (human) (UniProt P05107); experiment: flow cytometry, K562 WT (#22), ICAM-1-IgA 100 µg/ml, FITC anti-human IgA, taken after paragraph 201 as ICAM-1-IgA without CBRLFA-1/2; left column of this row, taken as no ICAM-1-IgA: 3.58
[20] = target: wild-type LFA-1 (αL/β2 complex) expressed on 293T or K562 transfectants (human) (UniProt P05107); experiment: flow cytometry, K562 WT (#22), ICAM-1-IgA 100 µg/ml, FITC anti-human IgA, taken after paragraph 201 as ICAM-1-IgA with CBRLFA-1/2 10 µg/ml; left column of this row, taken as no ICAM-1-IgA: 3.58
[21] = target: LFA-1 mutant K287C/K294C (αL K287C/K294C with β2) on 293T or K562 transfectants (human) (UniProt P05107); experiment: flow cytometry, K562 K287C K294C (#7), ICAM-1-IgA 100 µg/ml, FITC anti-human IgA, taken after paragraph 201 as ICAM-1-IgA without CBRLFA-1/2; left column of this row, taken as no ICAM-1-IgA: 3.59
[22] = target: LFA-1 mutant L289C/K294C (αL L289C/K294C with β2) on 293T or K562 transfectants (human) (UniProt P05107); experiment: flow cytometry, K562 L289C K294C (#6), ICAM-1-IgA 100 µg/ml, FITC anti-human IgA, taken after paragraph 201 as ICAM-1-IgA without CBRLFA-1/2; left column of this row, taken as no ICAM-1-IgA: 4.68
[23] = target: LFA-1 mutant K287C/K294C (αL K287C/K294C with β2) on 293T or K562 transfectants (human) (UniProt P05107); experiment: flow cytometry, K562 K287C K294C (#7), ICAM-1-IgA 100 µg/ml, FITC anti-human IgA, taken after paragraph 201 as ICAM-1-IgA with CBRLFA-1/2 10 µg/ml; left column of this row, taken as no ICAM-1-IgA: 3.59
[24] = target: LFA-1 mutant L289C/K294C (αL L289C/K294C with β2) on 293T or K562 transfectants (human) (UniProt P05107); experiment: flow cytometry, K562 L289C K294C (#6), ICAM-1-IgA 100 µg/ml, FITC anti-human IgA, taken after paragraph 201 as ICAM-1-IgA with CBRLFA-1/2 10 µg/ml; left column of this row, taken as no ICAM-1-IgA: 4.68

Chain of soluble ICAM-1-IgA chimera containing the 5 Ig domains of human ICAM-1 (P05362 28-480, stated change not applied): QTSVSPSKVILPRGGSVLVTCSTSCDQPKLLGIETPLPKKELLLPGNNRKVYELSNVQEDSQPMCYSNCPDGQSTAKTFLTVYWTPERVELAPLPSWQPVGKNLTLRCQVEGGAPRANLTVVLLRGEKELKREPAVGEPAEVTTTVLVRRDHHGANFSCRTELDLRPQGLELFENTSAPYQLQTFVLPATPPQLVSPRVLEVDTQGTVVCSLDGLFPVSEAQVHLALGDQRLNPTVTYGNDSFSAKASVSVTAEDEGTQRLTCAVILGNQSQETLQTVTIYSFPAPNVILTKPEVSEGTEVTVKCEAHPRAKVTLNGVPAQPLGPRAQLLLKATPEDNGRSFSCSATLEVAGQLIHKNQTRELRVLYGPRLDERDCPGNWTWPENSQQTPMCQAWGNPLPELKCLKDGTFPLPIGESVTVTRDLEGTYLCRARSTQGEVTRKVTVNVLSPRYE

Substance | % wild-type binding (% of wild-type) [1] | % wild-type binding (% of wild-type) [2] | % wild-type binding (% of wild-type) [3] | % wild-type binding (% of wild-type) [4] | % wild-type binding (% of wild-type) [5] | % wild-type binding (% of wild-type) [6] | % wild-type binding (% of wild-type) [7] | other results
anti-β2 (CD18) monoclonal antibody CBRLFA-1/7 | 95.3 | 91.7 | 95.2 | 97.2 |  |  |  | 
anti-β2 (CD18) monoclonal antibody TS1/18 | 99.8 | 95.7 | 97.4 | 106 | 87.9 | 108 | 87.3 | 
monoclonal antibody BL5 | 92.4 | 85.8 | 92.4 | 97.6 | 93.3 | 88.3 | 92.4 | 
monoclonal antibody CBRLFA-1/9 |  |  |  |  |  |  |  | % wild-type binding (% of wild-type) [8]: 84.7
monoclonal antibody CBRM1/5 |  |  |  |  |  |  |  | mean fluorescent intensity [9]: 25; mean fluorescent intensity [10]: 262; mean fluorescent intensity [11]: 208
monoclonal antibody CBRM1/32 |  |  |  |  |  |  |  | mean fluorescent intensity [9]: 120; mean fluorescent intensity [10]: 81; mean fluorescent intensity [11]: 115
monoclonal antibody F8.8 | 93.7 | 83.6 | 102 | 93.9 | 95.9 | 95.5 | 99.6 | 
monoclonal antibody May.035 | 92.6 | 82.1 | 92.6 | 101 | 95.8 | 106 | 95.4 | 
mouse anti-human αL (CD11a) monoclonal antibody TS1/11 | 94.4 | 93.7 | 96 | 105 |  |  |  | 
mouse anti-human αL (CD11a) monoclonal antibody TS2/14 | 85.5 | 83.3 | 95.4 | 103 | 103 | 103 | 100 | 
soluble ICAM-1-IgA chimera containing the 5 Ig domains of human ICAM-1 (from UniProt P05362 28-480) (Fc fusion) |  |  |  |  |  |  |  | mean fluorescent intensity [19]: 5.26; mean fluorescent intensity [20]: 4.89; mean fluorescent intensity [21]: 24.8; mean fluorescent intensity [22]: 5.36; mean fluorescent intensity [23]: 41.3; mean fluorescent intensity [24]: 4.32

Further lines, with some results ahead:

% wild-type binding (% of wild-type) [1] | % wild-type binding (% of wild-type) [2] | % wild-type binding (% of wild-type) [3] | % wild-type binding (% of wild-type) [4] | % wild-type binding (% of wild-type) [5] | % wild-type binding (% of wild-type) [6] | % wild-type binding (% of wild-type) [7] | Substance | other results
93.1 | 90.9 | 88.5 | 85.7 |  |  |  | monoclonal antibody 25-3-1 | 
 |  | 96.5 | 100 |  |  |  | monoclonal antibody CLBLFA-1/1 | 
89.4 | 95.3 | 97.4 | 85.7 | 98.3 | 92.3 | 86.4 | monoclonal antibody S6F1 | 
88.7 | 102 | 87.3 | 106 | 99.3 | 93.7 | 104 | mouse anti-human αL (CD11a) monoclonal antibody TS1/12 | 
95.8 | 91 | 93.1 | 110 | 103 | 92.2 | 96.2 | mouse anti-human αL (CD11a) monoclonal antibody TS1/22 | mean fluorescent intensity [12]: 104; mean fluorescent intensity [13]: 67.3; mean fluorescent intensity [14]: 66.3; mean fluorescent intensity [15]: 84.6; mean fluorescent intensity [16]: 71.1; mean fluorescent intensity [17]: 151; mean fluorescent intensity [18]: 205
84.9 | 78.6 | 89.2 | 95.9 | 91.4 | 91.7 | 88.2 | mouse anti-human αL (CD11a) monoclonal antibody TS2/6 | 
